In IntAct's records for PubMed 19503079:

Assays:
atxr5_arath ATXR5 = target: T1, atxr5_arath ATXR5 (UniProt Q8VZJ1)
T1 sequence: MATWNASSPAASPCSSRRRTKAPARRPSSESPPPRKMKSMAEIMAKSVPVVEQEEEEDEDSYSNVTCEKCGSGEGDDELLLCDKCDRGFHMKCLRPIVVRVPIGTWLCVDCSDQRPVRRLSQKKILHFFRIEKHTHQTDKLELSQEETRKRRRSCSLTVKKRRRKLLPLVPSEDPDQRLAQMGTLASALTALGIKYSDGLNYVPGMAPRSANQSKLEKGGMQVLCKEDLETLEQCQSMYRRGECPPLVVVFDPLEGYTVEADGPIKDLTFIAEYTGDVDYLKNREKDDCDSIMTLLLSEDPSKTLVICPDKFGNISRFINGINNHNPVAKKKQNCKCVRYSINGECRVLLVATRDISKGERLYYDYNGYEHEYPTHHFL

atxr6_arath ATXR6 = target: T2, atxr6_arath ATXR6 (UniProt Q9FNE9)
T2 sequence: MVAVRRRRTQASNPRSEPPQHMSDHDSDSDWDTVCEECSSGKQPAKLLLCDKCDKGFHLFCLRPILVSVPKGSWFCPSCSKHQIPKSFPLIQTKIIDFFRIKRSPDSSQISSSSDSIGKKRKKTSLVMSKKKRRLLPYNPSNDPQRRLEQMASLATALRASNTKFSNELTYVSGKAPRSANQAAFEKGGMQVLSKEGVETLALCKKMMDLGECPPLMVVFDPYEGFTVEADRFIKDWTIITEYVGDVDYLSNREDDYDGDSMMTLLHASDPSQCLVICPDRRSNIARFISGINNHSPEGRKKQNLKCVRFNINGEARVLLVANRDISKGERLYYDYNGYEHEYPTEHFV

## Histone H3.1 (Arabidopsis thaliana (Mouse-ear cress)) (from UniProt P59226) K28A
atxr5_arath ATXR5
  effect of a mutation on the interaction: disrupting interaction
atxr6_arath ATXR6
  effect of a mutation on the interaction: disrupting interaction
